According to patent US20230125550A1 (ARCELLX, published 2023):

T1: recombinant human CD123-Fc (human, UniProt P26951 19-305)
T1 construct: not shown: Fc part of CD123-Fc
T1 sequence: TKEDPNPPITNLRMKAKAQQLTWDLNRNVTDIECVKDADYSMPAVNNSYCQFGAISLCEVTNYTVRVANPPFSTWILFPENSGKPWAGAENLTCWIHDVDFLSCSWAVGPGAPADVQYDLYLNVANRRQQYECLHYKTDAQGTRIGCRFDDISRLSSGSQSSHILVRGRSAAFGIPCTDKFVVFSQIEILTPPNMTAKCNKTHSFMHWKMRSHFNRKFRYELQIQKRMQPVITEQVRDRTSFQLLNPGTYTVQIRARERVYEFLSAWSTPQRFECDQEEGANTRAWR

B1: SEQ ID NO: 534 (designed binder)
chain: MGSWAEFKQRLAAIKTRLEALGGSEAELAAFEWEIVAFFSELFAYKGKGNPEVEALRDEAIAIETELVAYRHN
notes: D domain, on phage
B2: SEQ ID NO: 546 (designed binder)
chain: MGSWNEFDDRLLAIWGRLDALGGSEAELAFFEEQIAGFEDELQWYKGKGNPEVEALDQEAEAIEKELWAYRHN
notes: D domain, on phage
B3: SEQ ID NO: 535 (designed binder)
chain: MGSWWEFDHRLTAIDTRLQALGGSEAELAEFESSIAEFEWWLQDYKGKGNPEVEALFAEAEAIYVELDAYRHN
notes: D domain, on phage
B4: SEQ ID NO: 553 (designed binder)
chain: MGSWEEFYMRLVAIHMRLRALGGSEAELAVFENYIAEFEEYLQYYKGKGNPEVEALTIEADAIGTELGAYRHN
notes: D domain, on phage
B5: SEQ ID NO: 539 (designed binder)
chain: MGSWSEFDSRLDAIAYRLFALGGSEAELAQFEWIIADFEEDLQMYKGKGNPEVEALFSEAYAIEIELNAYRHN
notes: D domain, on phage
B6: SEQ ID NO: 548 (designed binder)
chain: MGSWTEFDDRLFAIYWRLDALGGSEAELAWFEEVIAEFENDLQVYKGKGNPEVEALDDEAHAISIELEAYRHN
notes: D domain, on phage
B7: SEQ ID NO: 556 (designed binder)
chain: MGSWREFDQRLWAIDWRLEALGGSEAELAMFEWMIATFEDDLQWYKGKGNPEVEALYREAFAIDWELDAYRHN
notes: D domain, on phage
B8: SEQ ID NO: 538 (designed binder)
chain: MGSWYEFDMRLDAIWERLTALGGSEAELADFEQYIAEFERQLQDYKGKGNPEVEALFDEAWAIEDELYAYRHN
notes: D domain, on phage
B9: SEQ ID NO: 537 (designed binder)
chain: MGSWYEFDHRLDAIYQRLWALGGSEAELAEFEYGIAEFEEYLQDYKGKGNPEVEALISEAWAIEWELSAYRHN
notes: D domain, on phage
B10: SEQ ID NO: 543 (designed binder)
chain: MGSWEEFDVRLDAIFNRLWALGGSEAELAEFEFDIAWFEMDLQEYKGKGNPEVEALFDEAEAITNELVAYRHN
notes: D domain, on phage
B11: SEQ ID NO: 540 (designed binder)
chain: MGSWYEFDDRLDAIAYRLNALGGSEAELAWFEWEIAEFELDLQWYKGKGNPEVEALVWEADAIEWELEAYRHN
notes: D domain, on phage
B12: SEQ ID NO: 552 (designed binder)
chain: MGSWYEFESRLEAIWWRLEALGGSEAELAQFEQYIADFEQHLQWYKGKGNPEVEALDWEADAIWLELQAYRHN
notes: D domain, on phage
B13: SEQ ID NO: 541 (designed binder)
chain: MGSWFEFDERLDAIGSRLTALGGSEAELASFEFYIADFEEWLQQYKGKGNPEVEALEWEAFAIDEELGAYRHN
notes: D domain, on phage
B14: SEQ ID NO: 536 (designed binder)
chain: MGSWWEFQFRLYAIDQRLLALGGSEAELAEFEQDIADFEWMLQDYKGKGNPEVEALMLEADAIEAELKAYRHN
notes: D domain, on phage
B15: SEQ ID NO: 554 (designed binder)
chain: MGSWDEFYYRLVAITHRLHALGGSEAELAWFEDDIAGFEWDLQTYKGKGNPEVEALYKEAGAIGMELTAYRHN
notes: D domain, on phage
B16: SEQ ID NO: 551 (designed binder)
chain: MGSWMEFDYRLEAIWMRLIALGGSEAELADFESSIADFEHHLQSYKGKGNPEVEALEWEAFAIGVELDAYRHN
notes: D domain, on phage
B17: SEQ ID NO: 542 (designed binder)
chain: MGSWEEFDQRLDAIDVRLYALGGSEAELAEFEFDIAAFEEWLQLYKGKGNPEVEALNMEAFAITDELCAYRHN
notes: D domain, on phage
B18: SEQ ID NO: 526 (designed binder)
chain: MGSWAEFKHDLADIKRELEALGGSEAELAWFELSIAFFEDELQHYKGKGNPEVEALRKEAAAIRDELQAYRHN
notes: D domain, on phage
B19: SEQ ID NO: 527 (designed binder)
chain: MGSWVVFKQDLADINHQLEALGGSEAELAWFEWEIADFEWELQHYKGKGNPEVEALRKEAAAIRDELQAYRHN
notes: D domain, on phage
B20: SEQ ID NO: 555 (designed binder)
chain: MGSWEEFDTRLLAIFGRLGALGGSEAELALFEMLIAKFEDDLQNYKGKGNPEVEALSEEAFAIDHELGAYRHN
notes: D domain, on phage
B21: SEQ ID NO: 532 (designed binder)
chain: MGSWFEFKWTLALIKQELEALGGSEAELADFEQEIAEFEWWLQTYKGKGNPEVEALRKEAAAIRDELQAYRHN
notes: D domain, on phage
B22: SEQ ID NO: 557 (designed binder)
chain: MGSWEEFHERLDAIDERLEALGGSEAELAFFEDDIASFEDWLQWYKGKGNPEVEALSREADAINFELEAYRHN
notes: D domain, on phage
B23: SEQ ID NO: 528 (designed binder)
chain: MGSWFQFKEFLAMITHNLEALGGSEAELAEFEHDIALFESELQQYKGKGNPEVEALRKEAAAIRDELQAYRHN
notes: D domain, on phage
B24: SEQ ID NO: 529 (designed binder)
chain: MGSWHWFKEDLAMITDVLEALGGSEAELAAFESEIAVFEADLQYYKGKGNPEVEALRKEAAAIRDELQAYRHN
notes: D domain, on phage
B25: SEQ ID NO: 530 (designed binder)
chain: MGSWSWFQWDLAGIKDHLEALGGSEAELAEFESEIAYFEDELQWYKGKGNPEVEALRKEAAAIRDELQAYRHN
notes: D domain, on phage
B26: SEQ ID NO: 545 (designed binder)
chain: MGSWYEFDHRLEAIYDRLWALGGSEAELAFFEFDIADFEWDLQSYKGKGNPEVEALFDEAAAIGHELLAYRHN
notes: D domain, on phage
B27: SEQ ID NO: 549 (designed binder)
chain: MGSWSEFDQRLEAIWNRLDALGGSEAELADFEREIAYFENQLQWYKGKGNPEVEALNNEAFAIVDELGAYRHN
notes: D domain, on phage
B28: SEQ ID NO: 544 (designed binder)
chain: MGSWEEFDKRLDAITRRLMALGGSEAELAEFESTIAWFEWDLQEYKGKGNPEVEALDWEAYAIDYELGAYRHN
notes: D domain, on phage
B29: SEQ ID NO: 531 (designed binder)
chain: MGSWTEFKGELAEIKWILEALGGSEAELAFFEDEIAAFEWDLQKYKGKGNPEVEALRKEAAAIRDELQAYRHN
notes: D domain, on phage
B30: SEQ ID NO: 547 (designed binder)
chain: MGSWVEFDDRLDAIWERLDALGGSEAELAWFEEQIAVFEHQLQDYKGKGNPEVEALNQEAEAIDLELKAYRHN
notes: D domain, on phage
B31: SEQ ID NO: 550 (designed binder)
chain: MGSWYEFDERLWAIWERLDALGGSEAELAHFEWVIADFENDLQWYKGKGNPEVEALEFEAEAIVTELHAYRHN
notes: D domain, on phage
B32: SEQ ID NO: 533 (designed binder)
chain: MGSWAEFKQRLAAIKTRLEALGGSEAELAAFMDEIMAFEWELWAYKGKGNPEVEALMNEAFAIDVELYAYRHN
notes: D domain, on phage

The binders below were run against T1, recombinant human CD123-Fc (assay: phage ELISA, captured CD123-Fc).
Procedure, shortened: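 Phage from BCMA panning colonies were rescued with VCSM13 helper phage and diluted 5× in blocking buffer. Plates coated with anti-human IgG1-Fc captured 5 nM target-Fc or IgG1-Fc, and binding was detected with HRP anti-M13. Ratio = A450 target/A450 IgG1-Fc, averaged over the clone's wells.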

Question: With B1 as the binder, how does the ELISA_avg read?
Answer: 3.6 ratio A450 target/IgG1-Fc

Question: Which ELISA_avg does the source give for B2 here?
Answer: 4.1 ratio A450 target/IgG1-Fc

Question: B3 was tested. Which ELISA_avg did it give?
Answer: 4.3 ratio A450 target/IgG1-Fc

Question: B4 was tested. Which ELISA_avg did it give?
Answer: 4.4 ratio A450 target/IgG1-Fc

Question: For B5, which ELISA_avg is on record?
Answer: 4.3 ratio A450 target/IgG1-Fc

Question: With B6 as the binder, how does the ELISA_avg read?
Answer: 6.4 ratio A450 target/IgG1-Fc

Question: How did the ELISA_avg turn out when B7 was run?
Answer: 3.4 ratio A450 target/IgG1-Fc

Question: For B8, which ELISA_avg is on record?
Answer: 13.7 ratio A450 target/IgG1-Fc

Question: Which ELISA_avg does the source give for B9 here?
Answer: 4.6 ratio A450 target/IgG1-Fc

Question: B10 was tested. Which ELISA_avg did it give?
Answer: 4.7 ratio A450 target/IgG1-Fc

Question: How did the ELISA_avg turn out when B11 was run?
Answer: 4.6 ratio A450 target/IgG1-Fc

Question: Which ELISA_avg does the source give for B12 here?
Answer: 4.4 ratio A450 target/IgG1-Fc

Question: How did the ELISA_avg turn out when B13 was run?
Answer: 3.8 ratio A450 target/IgG1-Fc

Question: B14 was tested. Which ELISA_avg did it give?
Answer: 3.1 ratio A450 target/IgG1-Fc

Question: With B15 as the binder, how does the ELISA_avg read?
Answer: 5.4 ratio A450 target/IgG1-Fc

Question: For B16, which ELISA_avg is on record?
Answer: 3.1 ratio A450 target/IgG1-Fc

Question: For B17, which ELISA_avg is on record?
Answer: 3.6 ratio A450 target/IgG1-Fc

Question: How did the ELISA_avg turn out when B18 was run?
Answer: 3.3 ratio A450 target/IgG1-Fc

Question: With B19 as the binder, how does the ELISA_avg read?
Answer: 3.6 ratio A450 target/IgG1-Fc

Question: B20 was tested. Which ELISA_avg did it give?
Answer: 6.7 ratio A450 target/IgG1-Fc

Question: B21 was tested. Which ELISA_avg did it give?
Answer: 4.9 ratio A450 target/IgG1-Fc

Question: B22 was tested. Which ELISA_avg did it give?
Answer: 4.3 ratio A450 target/IgG1-Fc

Question: How did the ELISA_avg turn out when B23 was run?
Answer: 3.1 ratio A450 target/IgG1-Fc

Question: How did the ELISA_avg turn out when B24 was run?
Answer: 5.2 ratio A450 target/IgG1-Fc

Question: Which ELISA_avg does the source give for B25 here?
Answer: 12.9 ratio A450 target/IgG1-Fc

Question: Which ELISA_avg does the source give for B26 here?
Answer: 4.5 ratio A450 target/IgG1-Fc

Question: Which ELISA_avg does the source give for B27 here?
Answer: 3.4 ratio A450 target/IgG1-Fc

Question: Which ELISA_avg does the source give for B28 here?
Answer: 4.5 ratio A450 target/IgG1-Fc

Question: How did the ELISA_avg turn out when B29 was run?
Answer: 8.2 ratio A450 target/IgG1-Fc

Question: B30 was tested. Which ELISA_avg did it give?
Answer: 5 ratio A450 target/IgG1-Fc

Question: B31 was tested. Which ELISA_avg did it give?
Answer: 3.6 ratio A450 target/IgG1-Fc

Question: For B32, which ELISA_avg is on record?
Answer: 3.4 ratio A450 target/IgG1-Fc
